T1: PUF4 RNA-binding domain (Saccharomyces cerevisiae, UniProt P25339 537-888)
T1 sequence: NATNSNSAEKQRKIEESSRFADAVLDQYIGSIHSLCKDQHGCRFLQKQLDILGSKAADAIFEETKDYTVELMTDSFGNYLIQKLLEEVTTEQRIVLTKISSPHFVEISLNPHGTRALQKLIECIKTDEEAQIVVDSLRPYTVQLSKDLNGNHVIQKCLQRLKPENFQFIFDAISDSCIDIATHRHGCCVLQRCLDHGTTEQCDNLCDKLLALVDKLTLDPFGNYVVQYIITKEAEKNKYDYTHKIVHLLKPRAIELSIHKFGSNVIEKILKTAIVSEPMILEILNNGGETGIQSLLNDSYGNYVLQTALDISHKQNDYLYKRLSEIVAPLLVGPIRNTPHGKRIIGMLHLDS


Target: T1, PUF4 RNA-binding domain
Test: Mg; RNA-MaP; 20 mM Na-HEPES pH 7.4, 30 mM KOAc, 0.75 mM MgCl2, 0.1% Tween-20, 5% glycerol, 0.1 mg/mL BSA, 2 mM DTT; 25 C; 0.0125-409.6 nM protein
Settings: tags: N-His6-TEV cleaved; C-SNAP kept, Cy3B-labelled; label: tethered on chip by stalled RNA polymerase

Binder | Kd
UCUCUUUGCAUUUUUAUCUCUU (ssRNA) [Ib_S1_P5E.1_K5.1_C5.1_H5.1_[T3C]_A5.1_[A7T]_F5.1_T5.1] | 1540 nM
UCUCUUUGCAUUGUUAUCUCUU (ssRNA) [Ib_S1_P5E.1_K5.1_C5.1_H5.1_[T3C]_A5.1_[A7G]_F5.1_T5.1] | 2260 nM
UCUCUUUGUCCUAUUAUCUCUU (ssRNA) [Ib_S1_P5E.1_K5.1_C5.1_H5.1_[A4C]_A5.1_[T5C]_F5.1_T5.1] | 79.5 nM
Id_ii_S4_P5E.2_K5.1_C5.2_[C-2A]_H5.1_A5.1_F5.1_T5.2_[T11A]_[A12C] (ssRNA) RNA: UUUGACAACUGAUCGUUCUUUCUAUUGUAUUAUUAACUUCUUUCUCGAUCAGUUGUCUUU | 5.14 nM
Id_ii_S4_P5E.2_K5.1_C5.2_[C-2A]_H5.1_A5.1_F5.1_T5.2_[A12G] (ssRNA) RNA: UUUGACAACUGAUCGUUCUUUCUAUUGUAUUAUUAUGUUCUUUCUCGAUCAGUUGUCUUU | 4.86 nM
Id_ii_S4_P5E.3_K5.2_C5.2_[C-2A]_[T-1C]_H5.2_A5.1_F5.1_T5.2_[A12C] (ssRNA) RNA: UUUGACAACUGAUCGUUCUUUCUACUAUAUUAUUAUCUUCUUUCUCGAUCAGUUGUCUUU | 216 nM
Id_ii_S4_P5E.3_K5.2_C5.2_[C-2A]_[T-1A]_H5.2_A5.1_F5.1_T5.2_[T11C]_[A12C] (ssRNA) RNA: UUUGACAACUGAUCGUUCUUUCUAAUAUAUUAUUACCUUCUUUCUCGAUCAGUUGUCUUU | 896 nM
Id_ii_S4_P5E.2_K5.1_C5.2_H5.1_A5.1_F5.1_T5.2_[A12C] (ssRNA) RNA: UUUGACAACUGAUCGUUCUUUCUCUUGUAUUAUUAUCUUCUUUCUCGAUCAGUUGUCUUU | 1.53 nM
Id_ii_S4_P5E.3_K5.2_C5.2_H5.2_A5.1_F5.1_T5.2_[T11C]_[A12T] (ssRNA) RNA: UUUGACAACUGAUCGUUCUUUCUCUUAUAUUAUUACUUUCUUUCUCGAUCAGUUGUCUUU | 96.6 nM
Id_ii_S4_P5E.3_K5.2_C5.2_[T-1A]_H5.2_A5.1_F5.1_T5.2_[T11A]_[A12C] (ssRNA) RNA: UUUGACAACUGAUCGUUCUUUCUCAUAUAUUAUUAACUUCUUUCUCGAUCAGUUGUCUUU | 143 nM
Id_ii_S4_P5E.2_K5.1_C5.2_[T-1G]_H5.1_A5.1_F5.1_T5.2_[T11G]_[A12C] (ssRNA) RNA: UUUGACAACUGAUCGUUCUUUCUCGUGUAUUAUUAGCUUCUUUCUCGAUCAGUUGUCUUU | 1.94 nM
Id_ii_S4_P5E.3_K5.2_C5.2_H5.2_A5.1_F5.1_T5.2_[A12T] (ssRNA) RNA: UUUGACAACUGAUCGUUCUUUCUCUUAUAUUAUUAUUUUCUUUCUCGAUCAGUUGUCUUU | 168 nM
Id_ii_S4_P5E.4_K5.3_C5.2_[C-2G]_[T-1C]_H5.3_A5.1_F5.1_T5.2_[T11A]_[A12T] (ssRNA) RNA: UUUGACAACUGAUCGUUCUUUCUGCACACUUAUUAAUUUCUUUCUCGAUCAGUUGUCUUU | 559 nM
Id_ii_S4_P5E.3_K5.2_C5.2_[C-2A]_[T-1C]_H5.2_A5.1_F5.1_T5.2_[T11C]_[A12T] (ssRNA) RNA: UUUGACAACUGAUCGUUCUUUCUACUAUAUUAUUACUUUCUUUCUCGAUCAGUUGUCUUU | 122 nM
Id_ii_S4_P5E.3_K5.2_C5.2_[T-1A]_H5.2_A5.1_F5.1_T5.2_[T11C]_[A12C] (ssRNA) RNA: UUUGACAACUGAUCGUUCUUUCUCAUAUAUUAUUACCUUCUUUCUCGAUCAGUUGUCUUU | 116 nM
Id_ii_S4_P5E.3_K5.2_C5.2_[C-2A]_[T-1C]_H5.2_A5.1_F5.1_T5.2_[T11C]_[A12G] (ssRNA) RNA: UUUGACAACUGAUCGUUCUUUCUACUAUAUUAUUACGUUCUUUCUCGAUCAGUUGUCUUU | 1150 nM
Id_ii_S4_P5E.3_K5.2_C5.2_[C-2T]_H5.2_A5.1_F5.1_T5.2_[T11G]_[A12C] (ssRNA) RNA: UUUGACAACUGAUCGUUCUUUCUUUUAUAUUAUUAGCUUCUUUCUCGAUCAGUUGUCUUU | 416 nM
Id_ii_S4_P5E.3_K5.2_C5.2_[C-2T]_[T-1A]_H5.2_A5.1_F5.1_T5.2_[A12T] (ssRNA) RNA: UUUGACAACUGAUCGUUCUUUCUUAUAUAUUAUUAUUUUCUUUCUCGAUCAGUUGUCUUU | 23.8 nM
Id_ii_S4_P5E.3_K5.2_C5.2_[T-1A]_H5.2_A5.1_F5.1_T5.2_[T11A]_[A12T] (ssRNA) RNA: UUUGACAACUGAUCGUUCUUUCUCAUAUAUUAUUAAUUUCUUUCUCGAUCAGUUGUCUUU | 214 nM
Id_ii_S4_P5E.4_K5.3_C5.2_[C-2G]_H5.3_A5.1_F5.1_T5.2_[A12T] (ssRNA) RNA: UUUGACAACUGAUCGUUCUUUCUGUACACUUAUUAUUUUCUUUCUCGAUCAGUUGUCUUU | 2.65 nM
Id_ii_S4_P5E.2_K5.1_C5.2_H5.1_A5.1_F5.1_T5.2_[T11A]_[A12C] (ssRNA) RNA: UUUGACAACUGAUCGUUCUUUCUCUUGUAUUAUUAACUUCUUUCUCGAUCAGUUGUCUUU | 3 nM
Id_ii_S4_P5E.3_K5.2_C5.2_[T-1G]_H5.2_A5.1_F5.1_T5.2_[A12T] (ssRNA) RNA: UUUGACAACUGAUCGUUCUUUCUCGUAUAUUAUUAUUUUCUUUCUCGAUCAGUUGUCUUU | 15.6 nM
Id_ii_S4_P5E.2_K5.1_C5.2_[T-1C]_H5.1_A5.1_F5.1_T5.2_[A12T] (ssRNA) RNA: UUUGACAACUGAUCGUUCUUUCUCCUGUAUUAUUAUUUUCUUUCUCGAUCAGUUGUCUUU | 1.38 nM

Source: paper PMC9352680, “A comprehensive thermodynamic model for RNA binding by the Saccharomyces cerevisiae Pumilio protein PUF4”
